Source: the DeepSol protein solubility set

Assay: soluble on expression in E. coli; label from the status in PepcDB or PDB records

Sequence	soluble on expression in E. coli
METEDHAFRIEDIFPFLDPYVSKWFDINYRSLTEPQKYAIPFIHEGRNVLVSSPTGTGKTLTAFLSIINELFMLARSGKLEDKIYCVYISPLKALANDVNKNLRAPLEGIYKIADEDGINLPKIRVSVRSGDTSEGERQKMARKPPHILITTPESFSLTLSSPRMRENLRDVKYVIIDEIHEISSTKRGSLLSANMERLEALRPGILRIGLSATQSP	not soluble
MFNDLESKLQSLLERNITSVLELENWLFDELRVNAEIEEKITSSLIATYRDTDNRNMRDLHMYNQNTIQPLLKRYNAKFDQKFIECPFSNLLDERKYEFMKKARFVKSKMFNEKNIALSIKGQECITKYREIMSNITINWEGEQKTYAHVKAKLDNPNRAIRKKAWYALCEARSVVKPEVDRIMNELIQLRNEIALNAGFNNYSEYAFKQKNRDYSIDDCYKLHESIEKYVVPIWKQLGSISKKNLDVKTYRPWDLSPCNLPKAPFQNAINLLDGVEEMFRTTDLYFYEKFIHIRKAGCIDVEERENKAAGAICFTLPHSKEVFVYSNFSPSFYAINALIHEVGHAFHFYKQFKNDSSMQERYLREEVAELYSLSLELLVMDKLNVFYKQEDEYKEVQRVQIYRALSLLMSSIAGDVFQHWIYENPNHTPEERDKKYAEICKRYQYSTVDIAGLEDEIGASWIESFHYVQFPFYKIEYAIAQIGAMQLFQIYWEDPEKAIDFFKEGASADWNLSIQEIYEKTGVTFDFSEERIESTASVILDLINELK	not soluble
MQQANLGDGVATARLLSRSDWGARLPKSVEHFQGPAPYVIIHHSYMPAVCYSTPDCMKSMRDMQDFHQLERGWNDIGYSFGIGGDGMIYTGRGFNVIGAHAPKYNDKSVGIVLIGDWRTELPPKQMLDAAKNLIAFGVFKGYIDPAYKLLGHRQVRDTECPGGRLFAEISSWPHFTHINDTEGVSSTTAPVVPHVHPQAAAPQKPHQSPPAAPKV	soluble
MNPKEQSSYLYEQYDDALGEQLKPITSQYVLQDLNKNSSKQKAQVVQKVDSEYVLRDLRNQADQNQNFSRDAPNRPFLTGTPVNAKEIRSQIESLDNAIVIPQIINGKVFFTTHGDADARTAVEGSVSNPNLNETNVGASKPEGVDLSKMKFTFAQLVALLGPSTCQRLEREFVKKNRLSDAEMSQLRTARESISELNLATGRSTDTLRTAQSVEPNLLSIRTANSLEPNLLSVYSARSPGVFTKKEGMLTAQSPEPNLLSVRTANSLEPNLLSVKPAKELTTISNLKAQSPGLLTAQSAEPNLLSTRTARSSSNTSLIDTESKDVQTCIEIQSPTTGVLTAQSIATPSGSCQSVFTAKEIESIRSSQDVLTAVEILTDMSRSSQDVRTALEISE	not soluble
MGHHHHHHSHMEHPLEMPICAFQLPDLTVYNEDFRSFIERDLIEQSMLVALEQAGRLNWWVSVDPTSQRLLPLATTGDGNCLLHAASLGMWGFHDRDLMLRKALYALMEKGVEKEALKRRWRWQQTQQNKESGLVYTEDEWQKEWNELIKLASSEPRMHLGTNGANCGGVESSEEPVYESLEEFHVFVLAHVLRRPIVVVADTMLRDSGGEAFAPIPFGGIYLPLEVPASQCHRSPLVLAYDQAHFSALVSMEQKENTKEQAVIPLTDSEYKLLPLHFAVDPGKGWEWGKDDSDNVRLASVILSLEVKLHLLHSYMNVKWIPLSS	soluble
MTKHKERVMYYGKGDVFAYRTYLKPLTGVRTIPESPFSGRDHILFGVNVKISVGGTKLLTSFTKGDNSLVVATDSMKNFIQKHLASYTGTTIEGFLEYVATSFLKKYSHIEKISLIGEEIPFETTFAVKNGNRAASELVFKKSRNEYATAYLNMVRNEDNTLNITEQQSGLAGLQLIKVSGNSFVGFIRDEYTTLPEDSNRPLFVYLNIKWKYKNTEDSFGTNPENYVAAEQIRDIATSVFHETETLSIQHLIYLIGRRILERFPQLQEVYFESQNHTWDKIVEEIPESEGKVYTEPRPPYGFQCFTVTQEDLPHENIL	soluble
MSLDFATEYVYPAFSELTGTDKIVAFGDHSHKCPIYVPQTPPCTAECPAGEDIRAINRFLNGTDPSDDPLKSAWETATDTNPFPAVMGRICPHPCQSKCNRGVHDESVAINAVEQVLGNYGIEHNLKLKGPGADTGKRVAIIGGGPAGLSAAYQLRRKGHAVTIYDANEKLGGMVLYGIMGYRVDRKVLEAEIGRIIELGVETKMGVTIGKDITLEQLEAEYDAVFIAVGAQKGRALPVPGFEGTPGATNAIDFLKSYEVLGDDIPVGKHVVVIGDGNVSMDVARLALRLGSQATIISGVPREEMACFENEFDDAKNEGTTMHFLTGTVEVLGGASGVTGLRCTKMVKKEKGEEGWNSPIPFLRYKSNGESFEIEADMVVAAIGQATDLSGLGSAASGPWLKVDRNFRIPGREKLFGGGDALKVDLITTAVGHGRKAAYAIDAFLKGEPMPEEPYREITKPHKQDLLYFLHTPQAKRTSIKPEVVVGNHDELLEALTPEQAVTESKRCMSCGFCFDCKQCVSFCPQEAITRFRDNPAGEKVYTNYAKCVGCHLCSLVCPCGYIQMGMGDGEGHHHHHH	not soluble
MVRKVNIIKGNEGQGKRIKFVQLIFVDINGMPKGMEVPITRLEEAIEEGIAFDGSSVPGFQGIEDSDLVFKADPSTYVEVPWDNVARVYGYIYKDGKPYEADPRGVLRRTLERLEKLGIKVYIGPEPEFYLFKKNGSWELEIPDVGGYFDILTLDKAKDIKREIAEYMPYFGLTPEVLHHEVGKAQHEIDFRHDEALKTADNIVSFKYIVKAVAEMHGLYATFMPKPIYGMPGNGMHLHISLWKDGENIFKGEEGLSETALYFIGGLLKHAKALAAVTNPTVNSYKRLVPGYEAPVYISWGYKNRSALIRVPAFWGNGARIEYRCPDPSANSYLAFAAILMAGLDGIKHKIEPFAYVEENVYEMDEKRREEIGIDMLPENLGEALDELERDKVVKEALGGAYRNFVGYKRKEWEEYLDYLEAKNLPKDTKNVTEWELERYFFI	soluble
MSLIEVDLLNNDNLKKKTSGFTILSGDSTDGHGGYGAGVLSLDNVTPVFVDPEEERAFVDLGALHARSEVEKRIKFLPNKEEVPNGKLYWLVWVTIDSKKEGPYYAGVAGCEMTVDREIRRGYKSMPEHVNKMDKSIKGKIVVDDMDERSKRILGEYLKSFNEDMWKRSEPELREKLLGEKEGHHHHHH	soluble
MIQLNLPPYEHRIHQEDESMFIFDSIRRRYVALTPEEWVRQHFVHYLTDVLGYPADLIRNEAQLRIDRRRKRCDTVVYDTNLRPIVLCEYKAPTVSLTQKTMDQILCYNFIFRVPLLLLSNGLQHAACLVDYEQSGYVFLPEIPSYEELTTIIQSNQ	not soluble
AWQAAVASNEPFGEAQLAQRIRRYLPEQGQLFVGNSLVVRLIDALAQLPAGYPVYSNRGASGIDGLIATAAGVQRASARPTLAIVGDLSALYDLNSLALLRQASAPLVLIVVNNNGGQIFSMLPTPQDERRQFYLMPQDVDFSHAAVMFGLAYHRPDDWPSLDEALAGAWRRAGATVIELAVNETDG	not soluble
MPTSELTKERDLRDSKPIWADTPRTGIRSTHTPAANHYDTIVVGAGISGALVSHALHRPGQTMLIIDRREPVMGSSVASTAMIQHEIDTPLTELRKMIGKDAADRAWQRSARAVLRLEEIVSSLGISCSMKRKQALYLAGDEMGSRALKAEAAAREEAGIEARFLSTGELREQYGLDRTAAILSDISASANPAQLTAGLLRHTAAAGAEIVSKLEITDLRNLGDEVVLATADGKILSARSVVFCTGYEFLKMLESPKHQIISTWALASKKGLDLPDWLESHIVWEASDPYLYLRTDRDGRVIAGGEDEENPTAYQSERKLTAKAEAIRRKVEKLIGIDMGAPDYRWAAAFGTTTTGLPLIGAVPGMKNVYAVMGFGGNGITFSQIAAEIVAAAVNGGKDPDADLFRFGLEHHHHHH	soluble
AHHHHHHGSVEVKKHKFPGVYVVIDDDGSEKIATKNLVPGQRVYGERVIKWEGEEYRIWNPHRSKLGAAIVNGLKNFPIKPGKSVLYLGIASGTTASHVSDIVGWEGKIYGIEFSPRVLRELVPIVEERRNIIPILGDATKPEEYRALVTKVDVIFEDVAQPTQAKILIDNAKAYLKRGGYGMIAVKSRSIDVTKEPEQVFKEVERELSEYFEVIERLNLEPYEKDHALFVVRKP	soluble
GPGSMPAPSLATRHFTFTHEVPADDVFELEENAPRRVPIACVTLQMVSFNRRCFWFHIAMTREGFSAPPPPFGACAVSFSGVSGDSAATTLVDDTALPQLGFKEAQHEVGVGAPNPQAVFADSLARRLSRRLEREFTSGVAVYVACGIIGENQSDLLGTPAGYGSEVTRRFGAEVFKHAMDLICEEGLGKATAA	not soluble
MIIYKDIFSNDELLSDAYDAKLVDDVIYEADCAMVNVGGDNIDIGANPSAEGGDDDVEEGAEMVNNVVHSFRLQQTAFDKKSFLTYIKGYMKAVKAKLQETNPEEVPKFEKGAQTYVKKVIGSFKDWEFFTGESMDPDAMVVMLNYREDGTTPFVAIWKHGIVEEKI	soluble
MKTYDVVVVGAGMLGIAHAWAAARRGLSVAVVERSQRAHGATIRNFGQVLVTGQAPGVMARHARQSRELWLELAAGAGFHVRANGSLVLARSALEQDVLEEFAAARLQAEGYRAELLSGRELARLFDGRLGHHCAALRGHDDLQIYSREALPAITAYLADRFGVEFLTATLASAVREGVVQTSAGALRGRHAFVCPGHDYLTLAPELFAPLGLQVSCLQMLRVAFETRPFALDRPLLTGLSCVYYGAFSDLPTARTLRESLQRHEPDLLDNGIHLLVSPTPHGELIIGDSHRYGVDALPFNDEQVDCAMLDLAQQALGCRLRVIERWQGVYGAHGPAPFSVLPVDDQTTVAVMHSGVGMTVGLAVGENTVQARLGLEHHHHHH	not soluble
MNIIIATTKSWNIKNAQKFKKENESKYNTTIITNKDELTFEKVKLINPEYILFPHWSWIIPKEIFENFTCVVFHMTDLPFGRGGSPLQNLIERGIKKTKISAIKVDGGIDTGDIFFKRDLDLYGTAEEIFMRASKIIFNDMIPELLTKRPVPQKQEGEATVFQRRKPEQSEISPDFDLEKIYDYIRMLDGEGYPRAFIKYGKYRLEFSRASMKNGKIIADVEIIEGDENE	soluble
MGSDKIHHHHHHMTSVEPTKAVLFLQGPPSILWTEFARAFEQAGVKTHHVNFTLGDFLFWRKRGAKNYRGSFSKWPAYLRRLIAEKGITDIVYYADRLPYHAKAAEIGEELGVRCHAVEWGYLRPDWLTFERDGMGRFSHFPNDPKAIRAIAAKVEEPDIAVKYPHTFGQEAFNEVIYNLLNFFGRPFYPLYNADKYYSALVDYLPWLLKAGVKPARLPEGFLEDGQPPFYLVALQLQSDYQIRANSPYRHLRDMMRQVIASFVKNAPAGSKLLFKQHPLDNGLERWHKVLRHIAREFKIEDRVVFIEEGDLHDILQKTAGVVIVNSTVGLHSLRAQKPTIVLGCAVFDVPGLTHQGRLDDFWKRPEPVDPELMRDLVKAMAATIQIKGDFFNKAGRQAAIGAMVQRVIEGTVNMPDAFIDPPPRLTSPKGILTVLGRPVELDWEEDAAVPDMTYARSGPIR	not soluble
MTDIAQLLGKDADSLLQHRCMTIPSDQLYLPGKDYVDRVMIDNNRPPAVLRNMQTLYNTGRLAGTGYLSILPVDQGVEHSAGASFAANPRYFDPKNIVELAIEAGCNCVASTYGVLASVSRRYAHRIPFLVKLNHNETLSYPTEYDQTLYASVEQAFNMGAVAVGATIYFGSEQSRRQIEEISAAFERAHELGMVTVLWAYLRNSSFKKDGVDYHVSADLTGQANHLAATIGADIVKQKMAENNGGYKAVNFGYTDDRVYSKLTSDNPIDLVRYQLANCYMGRAGLINSGGADGGDTDLGDAVRTAVINKRAGGMGLILGRKAFKKSMADGVKLINAVQDVYLDSKVTIA	not soluble
